Assay results taken from patent publication US20120129720, “APTAMER THAT RECOGNIZES PEPTIDE” (KANAGAWA PREFECTURAL HOSPITAL ORGANIZATION, published 2012).

Columns and labels:
[1] = molecular target: T1, His-MIF (His-tag/T7 gene 10 leader/Xpress-MIF fusion) (UniProt P14174 P14174:1-115); experiment: SPR; 600 nM His-MIF; excellent binding; conditions: MIF 115 aa; ATGen
T1 chain: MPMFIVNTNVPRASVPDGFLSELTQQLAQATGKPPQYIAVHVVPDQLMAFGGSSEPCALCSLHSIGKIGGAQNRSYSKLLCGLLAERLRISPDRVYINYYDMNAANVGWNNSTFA
Protocol: (§1) A molecular interaction between each of the RNA aptamers and each of fusion proteins, i.e., a binding ability of each of the RNA aptamers to each of the fusion proteins was analyzed using surface plasmon resonance. The analysis of the binding ability was performed using BiacoreX (GE Healthcare UK Ltd.) according to the instruction thereof. Specifically, first, polyadenine having 20 bases was added to the 3′-end of the RNA aptamer. Thus, polyadenine-added RNA aptamer was prepared. This was then heated at 95° C. for 5 minutes and rapidly cooled on ice. Biotinylated polythymine having 20 bases obtained by biotinylating the 5′-end of polythymine had been bound to a streptavidin chip (Sensor chip SA, GE Healthcare UK Ltd.). The polyadenine-added RNA aptamer was introduced into a flow cell on the streptavidin chip using a running buffer. At this stage, the polyadenine-added RNA aptamer was immobilized on the chip via the biotinylated polythymine by complementary binding between poly A of the polyadenine-added RNA aptamer and the biotinylated polythymine. […] Subsequently, HBS (Hepes Buffered Saline) containing the fusion protein with a predetermined concentration was introduced into the chip using a running buffer, and a signal (RU) was measured. […]
A binding ability of each of these RNA aptamers to His-MIF was analyzed by surface plasmon resonance in the same manner as in “1. […]

[2] = molecular target: T1, His-MIF (His-tag/T7 gene 10 …); experiment: SPR; same as shot47; conditions: MIF 115 aa, ATGen, stem-loop
Protocol: as §1
A binding ability of each of downsized RNA aptamers to His-MIF as a fusion protein was analyzed by the molecular interaction analysis. […]

[3] = molecular target: T1, His-MIF (His-tag/T7 gene 10 …); experiment: SPR; 600 nM His-MIF; conditions: MIF 115 aa; ATGen
Protocol: (§2) A molecular interaction between each of the RNA aptamers and each of fusion proteins, i.e., a binding ability of each of the RNA aptamers to each of the fusion proteins was analyzed using surface plasmon resonance. The analysis of the binding ability was performed using BiacoreX (GE Healthcare UK Ltd.) according to the instruction thereof. Specifically, first, polyadenine having 20 bases was added to the 3′-end of the RNA aptamer. Thus, polyadenine-added RNA aptamer was prepared. This was then heated at 95° C. for 5 minutes and rapidly cooled on ice. Biotinylated polythymine having 20 bases obtained by biotinylating the 5′-end of polythymine had been bound to a streptavidin chip (Sensor chip SA, GE Healthcare UK Ltd.). The polyadenine-added RNA aptamer was introduced into a flow cell on the streptavidin chip using a running buffer. At this stage, the polyadenine-added RNA aptamer was immobilized on the chip via the biotinylated polythymine by complementary binding between poly A of the polyadenine-added RNA aptamer and the biotinylated polythymine. The polyadenine-added RNA aptamer was caused to bind to the biotinylated polythymine until a resonance unit (RU) (resonance unit; 1 RU=1 pg/mm²) reaches 700 RU. Subsequently, HBS (Hepes Buffered Saline) containing the fusion protein with a predetermined concentration was introduced into the chip using a running buffer, and a signal (RU) was measured. The composition of the running buffer includes 10 mmol/L HEPES (4-(2-hydroxyethyl)-1-piperazine ethanesulfonic acid), 150 mmol/L sodium chloride, 0.1 mmol/L magnesium acetate, and 0.01% Tween (registered trademark) 20 (pH 7.2). As a control, an introduction of the fusion protein and a measurement of a signal were performed in the same manner as described above using a chip to which biotinylated polythymine had been bound, on which no polyadenine-added RNA aptamer had been immobilized.
A binding ability of each of these RNA aptamers to His-MIF was analyzed by surface plasmon resonance in the same manner as in “1. (4) Molecular interaction analysis” of Example 1.

[4] = molecular target: T1, His-MIF (His-tag/T7 gene 10 …); experiment: SPR; 10 mM HEPES, 150 mM NaCl, 0.1 mM Mg acetate, 0.01% Tween 20, pH 7.2; RNA immobilised; conditions: MIF 115 aa; ATGen; label: biotin-T20 hybridised to tail; stem-loop
Protocol: as §1

[5] = molecular target: T1, His-MIF (His-tag/T7 gene 10 …); experiment: SPR; 600 nM His-MIF; conditions: MIF 115 aa; ATGen; label: biotin-T20 hybridised to tail; stem-loop
Protocol: as §2
A binding ability of each of the RNA pools in the respective rounds to His-MIF was analyzed by surface plasmon resonance in the same manner as in “1. (4) Molecular interaction analysis” of Example 1. […] N40 (control RNA) also was analyzed in the same manner as mentioned above.

B1: His_1 (ssRNA)
RNA: GGGACGCUCACGUACGCUCAGGUGAACUGGUCCGCAUUUAGCUUUCUUAUUUGCGGGUAUUCAGUGCCUGGACGUGCAGU
modifications: 3' A20 tail for capture
binding result [1]: binds

B2: shot47sss (ssRNA)
RNA: GGGUAUAUUGGCGCCUUCGUGGAAUGUCAGUGCCUGG
modifications: 3' A20 tail for capture
binding result ([2]; label: biotin-T20 hybridised to tail (ELISA)): binds

B3: His_10 (ssRNA)
RNA: GGGACGCUCACGUACGCUCAUUAGCUUAGCUUCAUGCCCGGGUGUACUGGAGAUCUCUUAUCAGUGCCUGGACGUGCAGU
modifications: 3' A20 tail for capture
binding result [3]: binds

B4: shot47 (ssRNA)
RNA: GGGACGCUCACGUACGCUCACGUCCGAUCGAUACUGGUAUAUUGGCGCCUUCGUGGAAUGUCAGUGCCUGGACGUGCAGU
modifications: 3' A20 tail for capture
Kd [4]: 3.78 pM | binding signal [5]: 1.88 His-MIF/RNA bonds

B5: #47s (ssRNA)
RNA: GGGUACGCUCAGGUAUAUUGGCGCCUUCGUGGAAUGUCAGUGCCUGGACGUGCAGU
modifications: 3' A20 tail for capture
binding result [2]: binds

B6: His_6 (ssRNA)
RNA: GGGACGCUCACGUACGCUCAGGUGUAUUGGAUUUGCUCCGAGGGUGUAGACCCCACAGAUUCAGUGCCUGGACGUGCAGU
modifications: 3' A20 tail for capture
binding result [3]: binds
